Reference: IntAct's records for PubMed 20696398

B1: Vacuolar protein sorting-associated protein VTA1 (Saccharomyces cerevisiae), Q06263 (parent)
chain: MASNAARVVATAKDFDKVGLGIIGYYLQLYAVELILSEEDRSQEMTALATELLDTIEAFKKEIGGESEAEDSDKSLHVMNTLIHDQEKAKIYMLNFTMSLYNEKLKQLKDGPWDVMLKRSLWCCIDLFSCILHLWKENISETSTNSLQKRIKYCKIYLSKLAKGEIGSSDEKTLDYADFADDSEEIKDEDVDHQTSDLENNNNDKVEGLAPKDQTTSYEPVDEVPEFIDDADSVNEEEQTVDKNEDAITKDEQQVVKKEVDLTRPSAPSEPAAAEHKSYTKDELTKIMDRASKIEQIQKLAKYAISALNYEDLPTAKDELTKALDLLNSI
partner: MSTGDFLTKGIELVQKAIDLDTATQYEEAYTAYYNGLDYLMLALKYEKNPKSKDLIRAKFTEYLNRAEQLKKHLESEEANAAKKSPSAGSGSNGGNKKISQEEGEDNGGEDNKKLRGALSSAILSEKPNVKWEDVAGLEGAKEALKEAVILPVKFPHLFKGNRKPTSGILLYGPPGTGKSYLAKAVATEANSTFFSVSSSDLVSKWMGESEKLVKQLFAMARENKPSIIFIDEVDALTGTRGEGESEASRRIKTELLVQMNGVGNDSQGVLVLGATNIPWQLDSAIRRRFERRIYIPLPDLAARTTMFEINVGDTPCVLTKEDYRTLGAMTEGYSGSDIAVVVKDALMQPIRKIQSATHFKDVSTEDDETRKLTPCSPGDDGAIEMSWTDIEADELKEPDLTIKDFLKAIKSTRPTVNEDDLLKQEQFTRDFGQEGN
B2: Vacuolar protein sorting-associated protein 4 (Saccharomyces cerevisiae), P52917 (parent)
chain: B1 partner
partner: B1 chain

Variants of: B1
Details: with vps4_yeast VPS4, P52917

Variant	effect of a mutation on the interaction
MASNAARVVATAKDFDKVGLGIIGYYLQLYAVELILSEEDRSQEMTALATELLDTIEAFKKEIGGESEAEDSDKSLHVMNTLIHDQEKAKIYMLNFTMSLYNEKLKQLKDGPWDVMLKRSLWCCIDLFSCILHLWKENISETSTNSLQKRIKYCKIYLSKLAKGEIGSSDEKTLDYADFADDSEEIKDEDVDHQTSDLENNNNDKVEGLAPKDQTTSYEPVDEVPEFIDDADSVNEEEQTVDKNEDAITKDEQQVVKKEVDLTRPSAPSEPAAAEHKSYTKDELTKIMDRASKIEQIQKLAKYAIRALNYEDLPTAKDELTKALDLLNSI [S306R]	decreasing interaction
MASNAARVVATAKDFDKVGLGIIGYYLQLYAVELILSEEDRSQEMTALATELLDTIEAFKKEIGGESEAEDSDKSLHVMNTLIHDQEKAKIYMLNFTMSLYNEKLKQLKDGPWDVMLKRSLWCCIDLFSCILHLWKENISETSTNSLQKRIKYCKIYLSKLAKGEIGSSDEKTLDYADFADDSEEIKDEDVDHQTSDLENNNNDKVEGLAPKDQTTSYEPVDEVPEFIDDADSVNEEEQTVDKNEDAITKDEQQVVKKEVDLTRPSAPSEPAAAEHKSYTKDELTKIMDRASKIEQIQKLAKYAISALNYEALPTAKDELTKALDLLNSI [D312A]	decreasing interaction
MASNAARVVATAKDFDKVGLGIIGYYLQLYAVELILSEEDRSQEMTALATELLDTIEAFKKEIGGESEAEDSDKSLHVMNTLIHDQEKAKIYMLNFTMSLYNEKLKQLKDGPWDVMLKRSLWCCIDLFSCILHLWKENISETSTNSLQKRIKYCKIYLSKLAKGEIGSSDEKTLDYADFADDSEEIKDEDVDHQTSDLENNNNDKVEGLAPKDQTTSYEPVDEVPEFIDDADSVNEEEQTVDKNEDAITKDEQQVVKKEVDLTRPSAPSEPAAAEHKSYTKDELTKIMDRASKIEQIQKLAKAAISALNYEDLPTAKDELTKALDLLNSI [Y303A]	disrupting interaction
MASNAARVVATAKDFDKVGLGIIGYYLQLYAVELILSEEDRSQEMTALATELLDTIEAFKKEIGGESEAEDSDKSLHVMNTLIHDQEKAKIYMLNFTMSLYNEKLKQLKDGPWDVMLKRSLWCCIDLFSCILHLWKENISETSTNSLQKRIKYCKIYLSKLAKGEIGSSDEKTLDYADFADDSEEIKDEDVDHQTSDLENNNNDKVEGLAPKDQTTSYEPVDEVPEFIDDADSVNEEEQTVDKNEDAITKDEQQVVKKEVDLTRPSAPSEPAAAEHKSYTKDELTKIMDRASKIEQIQKLAKYAISALNYEDLPRAKDELTKALDLLNSI [T315R]	decreasing interaction
MASNAARVVATAKDFDKVGLGIIGYYLQLYAVELILSEEDRSQEMTALATELLDTIEAFKKEIGGESEAEDSDKSLHVMNTLIHDQEKAKIYMLNFTMSLYNEKLKQLKDGPWDVMLKRSLWCCIDLFSCILHLWKENISETSTNSLQKRIKYCKIYLSKLAKGEIGSSDEKTLDYADFADDSEEIKDEDVDHQTSDLENNNNDKVEGLAPKDQTTSYEPVDEVPEFIDDADSVNEEEQTVDKNEDAITKDEQQVVKKEVDLTRPSAPSEPAAAEHKSYTKDELTKIMDRASKIEQIQKLAKYAISDLNYEDLPTAKDELTKALDLLNSI [A307D]	disrupting interaction

Variants of: B2
Details: with vta1_yeast VTA1, Q06263

Variant	effect of a mutation on the interaction
MSTGDFLTKGIELVQKAIDLDTATQYEEAYTAYYNGLDYLMLALKYEKNPKSKDLIRAKFTEYLNRAEQLKKHLESEEANAAKKSPSAGSGSNGGNKKISQEEGEDNGGEDNKKLRGALSSAILSEKPNVKWEDVAGLEGAKEALKEAVILPVKFPHLFKGNRKPTSGILLYGPPGTGKSYLAKAVATEANSTFFSVSSSDLVSKWMGESEKLVKQLFAMARENKPSIIFIDEVDALTGTRGEGESEASRRIKTELLVQMNGVGNDSQGVLVLGATNIPWQLDSAIRRRFERRIYIPLPDLAARTTMFEINVGDTPCVLTKEDYRTLGAMTEGYSGSDIAVVVKDALMQPIRKIQSATDFKDVSTEDDETRKLTPCSPGDDGAIEMSWTDIEADELKEPDLTIKDFLKAIKSTRPTVNEDDLLKQEQFTRDFGQEGN [H359D]	decreasing interaction
